T1: FcγRIIa H (human, UniProt P12318 34-217)
T1 construct: extracellular domain; also called FcgRIIa H; FcγRIIa type H; not shown: His tag attached to the C terminus
T1 sequence (looked up): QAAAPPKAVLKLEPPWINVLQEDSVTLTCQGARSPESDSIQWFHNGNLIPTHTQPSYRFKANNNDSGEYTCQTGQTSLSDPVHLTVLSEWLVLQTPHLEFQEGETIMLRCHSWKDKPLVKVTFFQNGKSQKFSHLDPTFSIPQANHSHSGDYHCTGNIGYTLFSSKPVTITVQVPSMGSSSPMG

T2: FcγRIIb (human, UniProt P31994 43-217)
T2 construct: extracellular domain; also called FcgRIIb; 2b; not shown: His tag attached to the C terminus
T2 sequence (looked up): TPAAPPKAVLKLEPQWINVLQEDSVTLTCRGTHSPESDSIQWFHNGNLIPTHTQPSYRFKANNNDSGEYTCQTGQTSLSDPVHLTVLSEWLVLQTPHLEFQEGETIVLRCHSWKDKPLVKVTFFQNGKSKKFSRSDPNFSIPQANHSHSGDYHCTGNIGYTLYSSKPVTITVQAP


How the values were obtained:
[1] = target: T1, FcγRIIa H; experiment: SPR (Biacore), antibody captured, FcγR as analyte; binding relative to GpH7-A5/GpH7-B3/GpL16-k0 = 100
[2] = target: T2, FcγRIIb; experiment: as above

Binder | He/Con_2aH [1] [control = 100] | He/Con_2b [2] [control = 100]
GpH7-A5/GpH7-B3 variant D270_10E/GpL16-k0 (antibody, human IgG1, kappa, Heterodimerized IgG1, mutation in the GpH7-B3 chain only; also called He Ab) heavy 1: not shown heavy 2: not shown light: DIVMTQSPLSLPVTPGEPASISCQASESLVHSNRNTYLHWYLQKPGQSPQLLIYKVSNRFSGVPDRFSGSGSGTDFTLKISRVEAEDVGVYYCSQNTHVPPTFGQGTKVEIERTVAAPSVFIFPPSDEQLKSGTASVVCLLNNFYPREAKVQWKVDNALQSGNSQESVTEQDSKDSTYSLSSTLTLSKADYEKHKVYACEVTHQGLSSPVTKSFNRGEC | 102 | 76.5
GpH7-A5/GpH7-B3 variant S324_02A/GpL16-k0 (antibody, human IgG1, kappa, Heterodimerized IgG1, mutation in the GpH7-B3 chain only; also called He Ab) heavy 1: not shown heavy 2: not shown light: DIVMTQSPLSLPVTPGEPASISCQASESLVHSNRNTYLHWYLQKPGQSPQLLIYKVSNRFSGVPDRFSGSGSGTDFTLKISRVEAEDVGVYYCSQNTHVPPTFGQGTKVEIERTVAAPSVFIFPPSDEQLKSGTASVVCLLNNFYPREAKVQWKVDNALQSGNSQESVTEQDSKDSTYSLSSTLTLSKADYEKHKVYACEVTHQGLSSPVTKSFNRGEC | 102 | 78.3
GpH7-A5/GpH7-B3 variant H268_04F/GpL16-k0 (antibody, human IgG1, kappa, Heterodimerized IgG1, mutation in the GpH7-B3 chain only; also called He Ab) heavy 1: not shown heavy 2: not shown light: DIVMTQSPLSLPVTPGEPASISCQASESLVHSNRNTYLHWYLQKPGQSPQLLIYKVSNRFSGVPDRFSGSGSGTDFTLKISRVEAEDVGVYYCSQNTHVPPTFGQGTKVEIERTVAAPSVFIFPPSDEQLKSGTASVVCLLNNFYPREAKVQWKVDNALQSGNSQESVTEQDSKDSTYSLSSTLTLSKADYEKHKVYACEVTHQGLSSPVTKSFNRGEC | 111 | 89.6
GpH7-A5/GpH7-B3 variant I332_13S/GpL16-k0 (antibody, human IgG1, kappa, Heterodimerized IgG1, mutation in the GpH7-B3 chain only; also called He Ab) heavy 1: not shown heavy 2: not shown light: DIVMTQSPLSLPVTPGEPASISCQASESLVHSNRNTYLHWYLQKPGQSPQLLIYKVSNRFSGVPDRFSGSGSGTDFTLKISRVEAEDVGVYYCSQNTHVPPTFGQGTKVEIERTVAAPSVFIFPPSDEQLKSGTASVVCLLNNFYPREAKVQWKVDNALQSGNSQESVTEQDSKDSTYSLSSTLTLSKADYEKHKVYACEVTHQGLSSPVTKSFNRGEC | 110 | 98.4
GpH7-A5/GpH7-B3 variant S324_15Y/GpL16-k0 (antibody, human IgG1, kappa, Heterodimerized IgG1, mutation in the GpH7-B3 chain only; also called He Ab) heavy 1: not shown heavy 2: not shown light: DIVMTQSPLSLPVTPGEPASISCQASESLVHSNRNTYLHWYLQKPGQSPQLLIYKVSNRFSGVPDRFSGSGSGTDFTLKISRVEAEDVGVYYCSQNTHVPPTFGQGTKVEIERTVAAPSVFIFPPSDEQLKSGTASVVCLLNNFYPREAKVQWKVDNALQSGNSQESVTEQDSKDSTYSLSSTLTLSKADYEKHKVYACEVTHQGLSSPVTKSFNRGEC | 102 | 88.2
GpH7-A5/GpH7-B3 variant I332_16H/GpL16-k0 (antibody, human IgG1, kappa, Heterodimerized IgG1, mutation in the GpH7-B3 chain only; also called He Ab) heavy 1: not shown heavy 2: not shown light: DIVMTQSPLSLPVTPGEPASISCQASESLVHSNRNTYLHWYLQKPGQSPQLLIYKVSNRFSGVPDRFSGSGSGTDFTLKISRVEAEDVGVYYCSQNTHVPPTFGQGTKVEIERTVAAPSVFIFPPSDEQLKSGTASVVCLLNNFYPREAKVQWKVDNALQSGNSQESVTEQDSKDSTYSLSSTLTLSKADYEKHKVYACEVTHQGLSSPVTKSFNRGEC | 109 | 93
GpH7-A5/GpH7-B3 variant I332_18N/GpL16-k0 (antibody, human IgG1, kappa, Heterodimerized IgG1, mutation in the GpH7-B3 chain only; also called He Ab) heavy 1: not shown heavy 2: not shown light: DIVMTQSPLSLPVTPGEPASISCQASESLVHSNRNTYLHWYLQKPGQSPQLLIYKVSNRFSGVPDRFSGSGSGTDFTLKISRVEAEDVGVYYCSQNTHVPPTFGQGTKVEIERTVAAPSVFIFPPSDEQLKSGTASVVCLLNNFYPREAKVQWKVDNALQSGNSQESVTEQDSKDSTYSLSSTLTLSKADYEKHKVYACEVTHQGLSSPVTKSFNRGEC | 110 | 89.9
GpH7-A5/GpH7-B3 variant S324_10E/GpL16-k0 (antibody, human IgG1, kappa, Heterodimerized IgG1, mutation in the GpH7-B3 chain only; also called He Ab) heavy 1: not shown heavy 2: not shown light: DIVMTQSPLSLPVTPGEPASISCQASESLVHSNRNTYLHWYLQKPGQSPQLLIYKVSNRFSGVPDRFSGSGSGTDFTLKISRVEAEDVGVYYCSQNTHVPPTFGQGTKVEIERTVAAPSVFIFPPSDEQLKSGTASVVCLLNNFYPREAKVQWKVDNALQSGNSQESVTEQDSKDSTYSLSSTLTLSKADYEKHKVYACEVTHQGLSSPVTKSFNRGEC | 103 | 77.4
GpH7-A5/GpH7-B3 variant I332_19Q/GpL16-k0 (antibody, human IgG1, kappa, Heterodimerized IgG1, mutation in the GpH7-B3 chain only; also called He Ab) heavy 1: not shown heavy 2: not shown light: DIVMTQSPLSLPVTPGEPASISCQASESLVHSNRNTYLHWYLQKPGQSPQLLIYKVSNRFSGVPDRFSGSGSGTDFTLKISRVEAEDVGVYYCSQNTHVPPTFGQGTKVEIERTVAAPSVFIFPPSDEQLKSGTASVVCLLNNFYPREAKVQWKVDNALQSGNSQESVTEQDSKDSTYSLSSTLTLSKADYEKHKVYACEVTHQGLSSPVTKSFNRGEC | 108 | 94.3
GpH7-A5/GpH7-B3 variant Q295_07I/GpL16-k0 (antibody, human IgG1, kappa, Heterodimerized IgG1, mutation in the GpH7-B3 chain only; also called He Ab) heavy 1: not shown heavy 2: not shown light: DIVMTQSPLSLPVTPGEPASISCQASESLVHSNRNTYLHWYLQKPGQSPQLLIYKVSNRFSGVPDRFSGSGSGTDFTLKISRVEAEDVGVYYCSQNTHVPPTFGQGTKVEIERTVAAPSVFIFPPSDEQLKSGTASVVCLLNNFYPREAKVQWKVDNALQSGNSQESVTEQDSKDSTYSLSSTLTLSKADYEKHKVYACEVTHQGLSSPVTKSFNRGEC | 102 | 84.3
GpH7-A5/GpH7-B3 variant I332_03V/GpL16-k0 (antibody, human IgG1, kappa, Heterodimerized IgG1, mutation in the GpH7-B3 chain only; also called He Ab) heavy 1: not shown heavy 2: not shown light: DIVMTQSPLSLPVTPGEPASISCQASESLVHSNRNTYLHWYLQKPGQSPQLLIYKVSNRFSGVPDRFSGSGSGTDFTLKISRVEAEDVGVYYCSQNTHVPPTFGQGTKVEIERTVAAPSVFIFPPSDEQLKSGTASVVCLLNNFYPREAKVQWKVDNALQSGNSQESVTEQDSKDSTYSLSSTLTLSKADYEKHKVYACEVTHQGLSSPVTKSFNRGEC | 105 | 80.7
GpH7-A5/GpH7-B3 variant Q295_05P/GpL16-k0 (antibody, human IgG1, kappa, Heterodimerized IgG1, mutation in the GpH7-B3 chain only; also called He Ab) heavy 1: not shown heavy 2: not shown light: DIVMTQSPLSLPVTPGEPASISCQASESLVHSNRNTYLHWYLQKPGQSPQLLIYKVSNRFSGVPDRFSGSGSGTDFTLKISRVEAEDVGVYYCSQNTHVPPTFGQGTKVEIERTVAAPSVFIFPPSDEQLKSGTASVVCLLNNFYPREAKVQWKVDNALQSGNSQESVTEQDSKDSTYSLSSTLTLSKADYEKHKVYACEVTHQGLSSPVTKSFNRGEC | 103 | 67.5
GpH7-A5/GpH7-B3 variant K326_12R/GpL16-k0 (antibody, human IgG1, kappa, Heterodimerized IgG1, mutation in the GpH7-B3 chain only; also called He Ab) heavy 1: not shown heavy 2: not shown light: DIVMTQSPLSLPVTPGEPASISCQASESLVHSNRNTYLHWYLQKPGQSPQLLIYKVSNRFSGVPDRFSGSGSGTDFTLKISRVEAEDVGVYYCSQNTHVPPTFGQGTKVEIERTVAAPSVFIFPPSDEQLKSGTASVVCLLNNFYPREAKVQWKVDNALQSGNSQESVTEQDSKDSTYSLSSTLTLSKADYEKHKVYACEVTHQGLSSPVTKSFNRGEC | 101 | 89.2
GpH7-A5/GpH7-B3 variant S324_09D/GpL16-k0 (antibody, human IgG1, kappa, Heterodimerized IgG1, mutation in the GpH7-B3 chain only; also called He Ab) heavy 1: not shown heavy 2: not shown light: DIVMTQSPLSLPVTPGEPASISCQASESLVHSNRNTYLHWYLQKPGQSPQLLIYKVSNRFSGVPDRFSGSGSGTDFTLKISRVEAEDVGVYYCSQNTHVPPTFGQGTKVEIERTVAAPSVFIFPPSDEQLKSGTASVVCLLNNFYPREAKVQWKVDNALQSGNSQESVTEQDSKDSTYSLSSTLTLSKADYEKHKVYACEVTHQGLSSPVTKSFNRGEC | 106 | 85.8
GpH7-A5/GpH7-B3 variant S324_04F/GpL16-k0 (antibody, human IgG1, kappa, Heterodimerized IgG1, mutation in the GpH7-B3 chain only; also called He Ab) heavy 1: not shown heavy 2: not shown light: DIVMTQSPLSLPVTPGEPASISCQASESLVHSNRNTYLHWYLQKPGQSPQLLIYKVSNRFSGVPDRFSGSGSGTDFTLKISRVEAEDVGVYYCSQNTHVPPTFGQGTKVEIERTVAAPSVFIFPPSDEQLKSGTASVVCLLNNFYPREAKVQWKVDNALQSGNSQESVTEQDSKDSTYSLSSTLTLSKADYEKHKVYACEVTHQGLSSPVTKSFNRGEC | 101 | 89.1

Source: US20180155451A1 (published 2018)
